Source: publication PMC8646926 (Advanced Biology, 2021)

Target: the molecule itself
Experiment: 15N-1H HSQC NMR (line broadening and signal loss)

B1: SARS-CoV-2 Nsp9, wild type, purified recombinant (natural protein, UniProt P0DTD1 4141-4253, looked up)
chain: NNELSPVALRQMSCAAGTTQTACTDDNALAYYNTTKGGRFVLALLSDLQDLKWARFPKSDGTGTIYTELEPPCRFVTDTPKGPKVKYLYFIKGLNNLNRGMVLGSLAATVRLQ
modifications: 15N or 13C,15N isotope labelling in the NMR experiments
**Q.** Does B1 bind?
**A.** binds
